Results as given in the RNAGym collection of RNA variant scans (doi:10.7554/elife.90254).

B1: LINE1-mini (parent)
chain: GGCAGAGCUCAACACAGCGUGGCAAAGUGGCUGUGGCUAGACUGCC

Variants of: B1
Experiment: self-cleavage, relative activity (ratio to wild type); higher = more cleavage; in vitro, sequencing; the parent is a self-cleaving ribozyme

Variant | self-cleavage
G7U G30A | 0.11
U32A U43A | 0.08
G33U A39C | 0.07
G21U A26G | 1.29
A25C C37A | 0.11
A6C A11C | 0.05
G7U G19U | 0.05
C31A C42A | 0.04
C23U A41U | 0.57
G29C U34C | 0.1
U20C U34A | 0.12
C3A C31U | 0.11
G21C C37A | 0.02
C10U G29U | 0.39
G29A A39U | 0.93
C18G A25G | 0.13
G35A G40U | 0.05
G2C C3U | 0.54
C3U C46G | 0.37
G27A C31A | 1.09
U32C G36A | 0.08
A16U C18U | 0.07
A16C U32A | 0.13
G1A G27U | 1.95

Variant | self-cleavage
U32A G36A | 0.06
C3U G29U | 0.34
G2U U20A | 0.07
C8U U43G | 0.12
C18U U43A | 0.06
A4C A41G | 0.07
A11U A16C | 0.02
U28C C46A | 0.66
A14U G44U | 0.06
A26U A41G | 0.37
G27C G29C | 0.37
G19A C42G | 0.04
G1C C8G | 0.02
C31A U43G | 0.15
A16C G36U | 0.07
G22U C45G | 0.42
U9A A12G | 0.05
C13G A25U | 0.44
A26U U43C | 0.12
U9C G35A | 0.06
C13U G29C | 0.09
A4U G33A | 0.07
A11C G21A | 0.26
C8G A41G | 0.13

Variant | self-cleavage
G30A G33U | 0.08
G21A C46G | 1.5
C3A G22A | 0.52
U20G G33A | 0.09
G35U A39U | 0.1
A4U G19C | 0.05
U9A C15U | 0.17
C3A G21C | 0.23
G22C G27C | 0.44
G5C G29U | 0.12
C31U G35U | 0.07
U32A G44C | 0.07
G1U C13U | 0.07
A11G G21A | 0.05
A12C G29C | 0.01
U20C G35U | 0.1
A4U A41G | 0.05
C18G C23U | 0.89
G7C U9A | 0.09
U20C G44U | 0.14
G33C G44C | 0.04
G33U C46A | 0.07
A6C G44C | 0.24
C31A A41U | 0.09

Variant | self-cleavage
U20G G40C | 0.04
A11C C18G | 0.05
G1C A6U | 0.14
C15U A25C | 1
C15G U34A | 0.52
U32G U43G | 0.04
U28A U38C | 0.38
A14G C37A | 0.07
U32C G35U | 0.12
C10G U20C | 0.07
G5A C8G | 0.22
G1A U38C | 0.84
A41G G44U | 0.06
C10A G35U | 0.03
G2C U43C | 0.15
U20C A26G | 0.36
A24G G27C | 0.9
A14C A26U | 0.09
U28C C42A | 0.16
G30C U43G | 0.02
A25U G44C | 0.29
G1A G33U | 0.09
G27U G36C | 0.1
A14C U34G | 0.26

Variant | self-cleavage
C8U G21U | 0.25
G1C A14C | 0.02
G17A A24U | 0.38
G7C C23A | 0.09
C10G G36C | 0.03
U34A U38A | 0.17
A6C A24C | 0.41
G17C A26C | 1.18
A12G U32G | 0.49
G27A G35C | 0.12
G5U G44A | 0.08
C10G G29A | 0.1
A14G U32A | 0.06
A26G G36C | 0.07
A26U G35A | 0.24
A26C G33A | 0.17
G22U A41U | 0.72
A12C G44A | 0.03
G35A G40C | 0.08
U43A C46G | 0.14
U20A U34A | 0.08
C8G G36U | 0.07
A25U U34A | 0.16
G35U C46G | 0.09

Variant | self-cleavage
G2A C8U | 0.43
U9C G44U | 0.02
C37G G44U | 0.07
A16G G29C | 0.4
G21C C45U | 1.56
G22C A25C | 0.31
U9A U38C | 0.12
G27A U43C | 0.37
G30C G40U | 0.16
G2A U9C | 0.08
A4G A41U | 0.3
C3A A26U | 0.49
A11U G19A | 0.27
G33U C42U | 0.09
G35C A41G | 0.08
G21C A39C | 0.07
C3A A39U | 0.48
G17U C23A | 0.21
G35C A41C | 0.06
A6U G27U | 0.58
A4U U32A | 0.06
G19C C45U | 0.79
C13A U38G | 0.03
G17U G22C | 0.61

Variant | self-cleavage
U20G G29C | 0.35
G33C G44A | 0.03
G1U G22C | 0.23
G7C G33U | 0.07
G7C U38G | 0.02
U20G C42G | 0.14
G2U A25U | 0.08
U9A C45G | 0.32
G22A A26C | 0.79
A26G G40C | 0.08
G1A A39G | 0.12
U9A C23U | 0.21
C31G G36A | 0.1
G1A U34A | 0.08
G7A U9G | 0.08
G5U G17U | 0.05
G5C A12U | 0.05
C31U A41C | 0.06
G22A C23A | 0.42
U9C U28G | 0.04
A39U G44U | 0.12
G21A C37A | 0.08
C10U U28A | 0.16
C3U G44C | 0.35

Variant | self-cleavage
G22C C46A | 0.61
U32G C46A | 0.2
G2C C15U | 0.11
C10A G21A | 0.08
G27U G29A | 0.96
C18U G29C | 0.86
G2U A41G | 0.09
U28G A39G | 0.07
U28A C42A | 0.12
G21C U34C | 0.19
A25C U32C | 0.25
U20G A39G | 0.07
U28C C45U | 1.88
G21C C42A | 0.19
G1U U20A | 0.31
A24G C46G | 0.83
A16G G36U | 0.04
A11G A39U | 0.05
C42G G44U | 0.06
G29A U34A | 0.19
G1A A11U | 0.17
G2A U38C | 0.7
A11G | 0.04
G27C A41U | 0.25

Variant | self-cleavage
U32C A41C | 0.09
C31U C46G | 0.08
G17A U34C | 0.06
G30A U43C | 0.22
C15A G40A | 0.04
C3A C18A | 0.18
C31U G40A | 0.04
G19U G36C | 0.1
A16G A24U | 0.62
G22A U38C | 0.68
G29C C37G | 0.02
A6G A25C | 0.1
G1C U20C | 0.04
U9A A39U | 0.1
A12G A14G | 0.04
G1U A12G | 0.04
A11U G27A | 0.16
C10U G19A | 0.32
G27C C42G | 0.09
G17A U20C | 0.12
G5A C15U | 0.11
C23G C42G | 0.03
C3A G5U | 0.28
A6C | 0.71

Variant | self-cleavage
G1U C23U | 0.31
C23A G29C | 0.39
G19U C23A | 0.64
A16G C23G | 0.64
G17A G36U | 0.05
C3U C18G | 0.09
A4C G5A | 0.12
A11U G17C | 0.12
C8U C10A | 0.03
U28G G36A | 0.12
U28C G30A | 0.96
C31G G36C | 0.04
G1C A25U | 0.08
A14C A39G | 0.04
C37A A39U | 0.22
G19U A26C | 0.61
A12U G36U | 0.16
G7C G36U | 0.1
G17C G33A | 0.06
A26G G27U | 0.94
A16C U28C | 0.03
C13A G27A | 0.18
A12U C42A | 0.06
A4G A12C | 0.03

Variant | self-cleavage
A4U G5C | 0.45
C13G C15A | 0.1
A12G C37A | 0.04
A25U G35C | 0.09
C23G G36C | 0.11
A14C C46A | 0.13
C3G U34A | 0.08
A12C C13U | 0.01
G27A G44C | 0.65
A4G A16U | 0.16
G5C G33A | 0.09
C3A G30C | 0.58
G30U U32C | 0.23
G17A C37A | 0.05
G2A C3G | 0.76
G35C U38A | 0.16
C18G A39C | 0.06
G2U G29A | 0.09
G29A U38G | 0.01
A11U G36U | 0.03
G1U U43C | 0.06
C23A A26C | 0.98
C3G A39G | 0.56
G1C C3A | 0.19

Variant | self-cleavage
C15A A26U | 0.08
C23U G29U | 0.85
G1C U20A | 0.06
A12G G29U | 0.02
G7A A16C | 0.13
A14G G29A | 0.78
C10A A25U | 0.1
G2A A26U | 1.83
U28A C31U | 0.54
G29C G33U | 0.36
G1A C13A | 0.13
C23A A39U | 0.73
G36U A41G | 0.15
G19U G27A | 0.54
A4U G29U | 0.23
C18A C37A | 0.05
G1C A26U | 0.12
G21C C42U | 0.36
G7U A11U | 0.04
G35C C37U | 0.03
C3U G27U | 0.41
A12G G35U | 0.04
G7A G36U | 0.12
A16C G21C | 0.22

Variant | self-cleavage
C8G A11G | 0.03
A16C U38G | 0.03
G2A C3U | 0.9
C8A A25G | 0.23
G33A A39C | 0.08
U34A C46A | 0.06
A12C U43G | 0.01
C10G G19C | 0.06
A24U A41G | 0.52
G7A A25C | 0.14
G17A G22C | 0.17
G21U G36U | 0.12
C13G A14G | 0.08
A4C G33U | 0.06
G2U C8G | 0.04
G2U G30A | 0.09
C15U C45U | 0.79
G7A C8A | 0.35
G36U C42U | 0.06
G33A U38A | 0.13
G19U C37G | 0.02
G19U A39U | 0.58
C8G G29C | 0.04
G17A U32G | 0.06

Variant | self-cleavage
A25U C46U | 1.04
C10U U28C | 0.13
A11G U34C | 0.03
C31G G35C | 0.05
G33U G40U | 0.14
G27A G29A | 0.65
G2U U28G | 0.04
G5C C10G | 0.02
A11C U43G | 0.03
A14C G35C | 0.04
A4U C46U | 0.19
A24C A39U | 0.25
G17A A41U | 0.12
G2C A26U | 0.09
G5A A24C | 0.08
A14U U20G | 0.28
C15U G19U | 0.87
A16U U32C | 0.18
A12C C37U | 0.02
G1C G19C | 0.04
A14U A16U | 0.1
U9A U20G | 0.16
